Reference: patent US20210324066A1

Columns and labels:
[1] = molecular target: native free LIGHT (TNFSF14) in serum and plasma samples (UniProt O43557); experiment: antibody competition: serum and plasma samples incubated with 50 µg/mL free capture antibody for 35 minutes before the Simoa free LIGHT assay; treated against untreated sample concentration
[2] = molecular target: LIGHT standard recombinant antigen (UniProt O43557); experiment: Simoa sandwich immunoassay, Enzo ALX-804-841-C100 capture with ProSci RF16062 detection, free LIGHT in diluent; uninhibited signal in the inhibition formula
[3] = molecular target: LIGHT standard recombinant antigen (UniProt O43557); experiment: Simoa sandwich immunoassay, Enzo ALX-804-841-C100 capture with ProSci RF16062 detection, free LIGHT in diluent; signal inhibited by DcR3 as competitor

Enzo ALX-804-841-C100 (antibody)
% Recovery [1]: 0% | MFI [2]: 9940 MFI | MFI [3]: 361 MFI
